Test results from US20250241939A1, “NUCLEIC ACID-BASED DELIVERY SYSTEMS AND USES THEREOF” (Kodikaz Therapeutic Solutions, Inc., priority 2022, published 2025).

How the values were obtained:
[1] = tested on: MM cell lines MM1S, JK6L, and RPMI; assay: Uptake of additional MM2 fragments, fluorescent microscopy; format: cell-based; conditions: Fluorescein 12 dCTP or 5′FAM labelling
Experimental: FIG. 21 provides microcopy images showing uptake of 5′ fluorescently labelled synthetic DNA fragments derived from a multiple myeloma ctDNA by MM cells (JK6L) or non-MM cells.
Additional fragments were generated to analyze further the sequence to identify a region that contributes to uptake by MM cells (e.g., a recognition sequence). The following sequences were generated with Fluorescein 12 dCTP or 5′FAM labelling:
The fluorescent DNA sequences were incubated with multiple cell lines (e.g., MM cell lines MM1S, JK6L, and RPMI, and non-MM cell lines HT1080, HCT116, and DU145) and uptake was evaluated by fluorescent microscopy. […] Specificity of uptake by MM cells was preserved as shown by a lack of uptake by HT1080 and HCT116 cells (FIG. 21).

[2] = tested on: HFF (fibroblast), DU145 (prostate cancer), and MCF10A (breast); assay: Uptake of MM2 fragments in different cell types; format: cell-based
Source text: (§1) FIG. 20 provides fluorescence microcopy images evaluating uptake of fluorescently labelled synthetic DNA derived from a multiple myeloma ctDNA (MM2 (1-290), MM2 (89-290), MM2 (177-290), and MM2 (1-201), and MM2 (1-113)) by multiple myeloma/B cell lines (MM1S and RPMI) and cell lines of other cell types (HFF—fibroblast, DU145—prostate cancer, MCF10A breast).
(§2) A follow-up experiment evaluated uptake of the fragments in different cell types, with counterstaining to identify nuclei (DAPI) and cytoplasm (Texas red-phalloidin).

[3] = tested on: MM/B cell lines (MM1S and RPMI); assay: Uptake of MM2 fragments in different cell types; format: cell-based; conditions: DAPI and Texas red-phalloidin counterstain
Source text: as §1, §2

[4] = tested on: multiple myeloma cell line; assay: Uptake of fluorescent MM2 fragments, fluorescent microscopy; format: cell-based; conditions: Fluorescein 12 dCTP labelled PCR products
Experimental: FIG. 19 provides fluorescence microcopy images showing uptake of fluorescently labelled synthetic DNA derived from a multiple myeloma ctDNA (MM2 (1-290), MM2 (89-290), MM2 (177-290), and MM2 (1-201), and MM2 (1-113)), or a control sequence.
Fluorescein 12 dCTP from Perkin Elmer was used to label the PCR products, which were purified after the reaction.
In an initial study, fragments were generated as follows:
The fluorescent DNA sequences were incubated with multiple a myeloma cell line and uptake was evaluated by fluorescent microscopy.
The study was repeated with 5′FAM-labelled primers, with similar results.

[5] = tested on: MM1s (multiple myeloma) cell genome; assay: ctDNA coculture with MM1s cells, whole genome sequencing: genomic insertion sites, transposons at insertion points and SNVs (multiple myeloma); format: cell-based, human; conditions: TABLE 7, multiple myeloma co-culture
[6] = tested on: MM1s and U266 cells; assay: Cell capture of several transposons in two MM cell lines at 4 hours, flow cytometry; format: cell-based, human; conditions: 4 hours of culture
Experimental: The variability of cell capture of several transposons was tested in two MM cell lines at 4 hours of culture.

[7] = tested on: plasma cells (CD138+) and non-plasma cells (CD138−) of bone marrow; assay: Cell targeting in bone marrow samples from patients with and without multiple myeloma, flow cytometry; format: cell-based, human
Experimental: FIG. 10 provides illustrative flow cytometry scatterplots displaying the cell capture of AluSp, MER11, and control transposon sequence in plasma cells (CD138+) and non-plasma cells (CD138−) derived from bone marrow of multiple myeloma patients.
Data for plasma cells (CD138+) and non-plasma cells (CD138−) are separately shown.
Cell targeting of the AluSp and MER11C sequences was tested in bone marrow samples derived from patients with and without multiple myeloma.

B1: MM2 (88-168): fluorescently labelled fragment of MM2 (nucleic acid, listed as Homo sapiens)
DNA: CCAGGATGGAGTGCAAGGGATCTTGGCTCACCACAGCCTCCGCCTCTTGGGTTCAAGTGATTCTTCTGCCTCAGCCTCCC
modifications: DNA, all phosphodiester, methylation of C not given here; fluorescein label via fluorescein-12-dCTP or 5' FAM primer
- uptake by MM cells [1]: sufficient for uptake

B2: MM2 (1-201): fluorescently labelled fragment of MM2 (1-290) (nucleic acid, listed as Homo sapiens)
DNA: ACCCGGCCTTGGACACGCCATTTTCAACTCCGTGGTGCGTTTTTTTTTTTTTTTTTTTTTTTTTGTAATGGAGTTTCGCTCTTGTTGCCCAGGATGGAGTGCAAGGGATCTTGGCTCACCACAGCCTCCGCCTCTTGGGTTCAAGTGATTCTTCTGCCTCAGCCTCCCAAGTAGCTGGGATTATAAGCACCCACCACCACG
modifications: fluorescent label
- uptake [2]: not
- uptake [3]: observed
- uptake [4]: observed

B3: CY5-MER11C: synthesized MM retrotransposon MER11C, labelled with CY5 (nucleic acid, listed as Homo sapiens)
DNA: TATCGAAAATTCACCCCCGATATTCACGTAGGTTCTTTTCTATTTTCCCTAAGCGTCGGCAGGTTTGAGAAATAAAGGGACAGAGTACAAAAGAGAGAAATTTTAAAGCTGGGCGTCCGGGGGAGACATCACATGTTGGTAGGTTCCATGATGCCCCACAAGCCGTAAAAACCAGCAAGTTTTTATTAGTGATTTTCAAAAGGGGAGGGAGTGTACGAATAGGTGTGGGTCACAGAGATCACGTGCTTCACAAGGTAATAGAATATCACAAGGCAAATGGAGGCAGGGCGAGATCACAGGACCACAGGACCGGGGTGAAATTAAAATTGCTAATGAAGTTTTGGGCACCATTGTCATTGATAACATCTTATCAGGAGACAGGGTTTGAGAGACAACCGGTCTGACCAAAATTTATTAGGTGGGAATTTCCTCGTCCTAATAAGCCTGGGAGTGCTATGGGAGACTGGGGCTTATTTCATCCCGTAGAGGCAACCATAAAAGACAGGCCCAAGCGGCCATTTAGAGCCTCCCAGGACATTCTCTTTCTCAGGGTGTTCCTTGCTGAGAAAAAGAATTCAGATATTTCTCCATTTGCTTTTGAAAGAAGAGAAATATGGCTCTGTTCCCGGCTCACGGCGCAGATTTAAGGTTATCTCCTTTTCCCTGAACAATTGCTGTTATCCTGTTCTTTTTTCAAGGTGCCCAGATTTCATATTGTTCAAACACACATGCTTACAATTTGTGCAGTTAAGCAATATCACAGGGTCCTGAGGGACATACATCCTCCTCAGCTGACAGGATTAAGAGATTAAAGTAAAGACAGGCATAGGAAATCACAAGGGTATTGATTGGGGAAGTGATAAGTGTCCATGAAATCTTCACAATTTATGTTTAGAGATTGCAGTAAAGACAGGCATAAGAAATTATAAAAGTATTAATTTGGGGAACTAATAAATGTCCATGAAATCTTCACAATCCACGTTCTTCTGCCATGGCTTCAGCCGGTCCCTCCGTTCGGGGTCCCTGACTTCCCGCAACA
modifications: CY5 label
- blast orientation ([5]; BLAST alignment orientation): Plus/Plus
- blast chr ([5]; chromosome with the longest result for BLAST analysis of the full contig): chr14
- Distance from insertion ([5]; distance between insertion and the transposon (0 if they overlap)): 0
- Location relative to insertion ([5]; location of the transposon relative to the insertion on the contig): intersect
- cell capture [6]: higher than that of the other transposons, the control sequence, and PC transposons
- signal in plasma cells of MM patients vs non-MM CD138 (−) cells compartment ([7]; 14 hours): higher levels of signal
- CY5 positive plasma cells ([7]; 14 hours of culture, vs control sequence or PC specific sequence): more CY5 positive plasma cells
